Test results: publication PMC6555819, “Comprehensive study of nuclear receptor DNA binding provides a revised framework for understanding receptor specificity”
Numbering of substitutions follows the chain as printed.

B1: NRC3_wobSeed134_DR5_A30G_o1 (dsDNA)
DNA 1: GCGCTGCTAGGTCAACTGATGGTCAGCTAGAGCTCGGCGATTGACAGCGTAGAATGAAGG
DNA 2: CCTTCATTCTACGCTGTCAATCGCCGAGCTCTAGCTGACCATCAGTTGACCTAGCAGCGC
B2: NRC3_wobSeed125_DR5_C15G_o1 (dsDNA)
DNA 1: GCCCTTACGGGTCAGTGACAGGTTATAGCATTTGGAGCGATTGACAGCGTAGAATGAAGG
DNA 2: CCTTCATTCTACGCTGTCAATCGCTCCAAATGCTATAACCTGTCACTGACCCGTAAGGGC
B3: NRC3_wobSeed65_DR2_A5C_o1 (dsDNA)
DNA 1: GCATCTGTAGGTTATCGGGTCATTCAGTTTGCGCATGCGATTGACAGCGTAGAATGAAGG
DNA 2: CCTTCATTCTACGCTGTCAATCGCATGCGCAAACTGAATGACCCGATAACCTACAGATGC
B4: NRC3_wobSeed40_DR1_G16A_o1 (dsDNA)
DNA 1: GCTAGCCTAGGTCATAGGCCAGTATACCACGCGAACGCGATTGACAGCGTAGAATGAAGG
DNA 2: CCTTCATTCTACGCTGTCAATCGCGTTCGCGTGGTATACTGGCCTATGACCTAGGCTAGC
B5: NRC3_wobSeed33_DR1_T4G_o1 (dsDNA)
DNA 1: GCAGCTCTAGGTAAAAGTTCAGTGAATCCCGAGGATGCGATTGACAGCGTAGAATGAAGG
DNA 2: CCTTCATTCTACGCTGTCAATCGCATCCTCGGGATTCACTGAACTTTTACCTAGAGCTGC
B6: NRC3_wobSeed141_DR5_G16C_o1 (dsDNA)
DNA 1: GCAGTCAAAGTTCAGCACGAGGTAACGTAAAGCACGGCGATTGACAGCGTAGAATGAAGG
DNA 2: CCTTCATTCTACGCTGTCAATCGCCGTGCTTTACGTTACCTCGTGCTGAACTTTGACTGC
B7: NRC3_wobSeed76_DR3_A16C_o1 (dsDNA)
DNA 1: GCCCTACTGGGCCAACAAGGTCATTGATGCCGATAAGCGATTGACAGCGTAGAATGAAGG
DNA 2: CCTTCATTCTACGCTGTCAATCGCTTATCGGCATCAATGACCTTGTTGGCCCAGTAGGGC
B8: NRC3_wobSeed97_DR4_G27T_o1 (dsDNA)
DNA 1: GCCAAACTAGGTCACGAAAGGTCAAATTCGAATGACGCGATTGACAGCGTAGAATGAAGG
DNA 2: CCTTCATTCTACGCTGTCAATCGCGTCATTCGAATTTGACCTTTCGTGACCTAGTTTGGC
B9: NRC3_wobSeed97_DR4_C29G_o1 (dsDNA)
DNA 1: B8 DNA 1 with T27G, C29G
DNA 2: B8 DNA 2 with G32C, A34C
B10: NRC3_wobSeed64_DR2_G19A_o1 (dsDNA)
DNA 1: GCTAGCCTAGGTCATTGGACCAGTATAGTACGCATCGCGATTGACAGCGTAGAATGAAGG
DNA 2: CCTTCATTCTACGCTGTCAATCGCGATGCGTACTATACTGGTCCAATGACCTAGGCTAGC
B11: NRC3_wobSeed28_DR1_T26C_o1 (dsDNA)
DNA 1: GCCCTACTGGGCCAAAGGTCATTGACTCCAATGCTCGCGATTGACAGCGTAGAATGAAGG
DNA 2: CCTTCATTCTACGCTGTCAATCGCGAGCATTGGAGTCAATGACCTTTGGCCCAGTAGGGC
B12: NRC3_wobSeed28_DR1_C12G_o1 (dsDNA)
DNA 1: B11 DNA 1 with C12G, C26T
DNA 2: B11 DNA 2 with G35A, G49C
B13: NRC3_wobSeed77_DR3_A18G_o1 (dsDNA)
DNA 1: GCACTTACGGGTCAACGGGGTTATAGCACGCGTATAGCGATTGACAGCGTAGAATGAAGG
DNA 2: CCTTCATTCTACGCTGTCAATCGCTATACGCGTGCTATAACCCCGTTGACCCGTAAGTGC
B14: NRC3_wobSeed116_DR4_A18G_o1 (dsDNA)
DNA 1: GCAGAATGAGGTTACCAGAGATCAGGGAAACGCTTGGCGATTGACAGCGTAGAATGAAGG
DNA 2: CCTTCATTCTACGCTGTCAATCGCCAAGCGTTTCCCTGATCTCTGGTAACCTCATTCTGC
B15: NRC3_wobSeed116_DR4_C15A_o1 (dsDNA)
DNA 1: B14 DNA 1 with C15A, G18A
DNA 2: B14 DNA 2 with C43T, G46T
B16: NRC3_wobSeed124_DR5_A29T_o1 (dsDNA)
DNA 1: GCCCTACTGGGCCATTCAGAGGTCATTGTTCATATGGCGATTGACAGCGTAGAATGAAGG
DNA 2: CCTTCATTCTACGCTGTCAATCGCCATATGAACAATGACCTCTGAATGGCCCAGTAGGGC
B17: NRC3_wobSeed124_DR5_C17G_o1 (dsDNA)
DNA 1: B16 DNA 1 with C17G, T29A
DNA 2: B16 DNA 2 with A32T, G44C
B18: NRC3_wobSeed36_DR1_G9T_o1 (dsDNA)
DNA 1: GCCCGACTTGGGCAAAGGTTACCATACTCAGTACGAGCGATTGACAGCGTAGAATGAAGG
DNA 2: CCTTCATTCTACGCTGTCAATCGCTCGTACTGAGTATGGTAACCTTTGCCCAAGTCGGGC
B19: NRC3_wobSeed25_DR1_A5T_o1 (dsDNA)
DNA 1: GCCATACTAGGTCAAAGGTCAAAGTCGAGCCAACCAGCGATTGACAGCGTAGAATGAAGG
DNA 2: CCTTCATTCTACGCTGTCAATCGCTGGTTGGCTCGACTTTGACCTTTGACCTAGTATGGC
B20: NRC3_wobSeed25_DR1_G24A_o1 (dsDNA)
DNA 1: B19 DNA 1 with T5A, G24A
DNA 2: B19 DNA 2 with C37T, A56T
B21: NRC3_wobSeed25_DR1_A6T_o1 (dsDNA)
DNA 1: B19 DNA 1 with T5A, A6T
DNA 2: B19 DNA 2 with T55A, A56T
B22: NRC3_wobSeed66_DR2_A6T_o1 (dsDNA)
DNA 1: GCAATTCAGGGTCACTAGGCCAGAGTAGGTACGAATGCGATTGACAGCGTAGAATGAAGG
DNA 2: CCTTCATTCTACGCTGTCAATCGCATTCGTACCTACTCTGGCCTAGTGACCCTGAATTGC
B23: NRC3_wobSeed41_DR1_T4A_o1 (dsDNA)
DNA 1: GCAAATGTAGGTTAAGGGTCATTCAGGTTGGTTCGCGCGATTGACAGCGTAGAATGAAGG
DNA 2: CCTTCATTCTACGCTGTCAATCGCGCGAACCAACCTGAATGACCCTTAACCTACATTTGC
B24: NRC3_wobSeed69_DR2_C15G_o1 (dsDNA)
DNA 1: GCAGTCAAAGTTCAGTAGGTAACGTAAGATTCAGCTGCGATTGACAGCGTAGAATGAAGG
DNA 2: CCTTCATTCTACGCTGTCAATCGCAGCTGAATCTTACGTTACCTACTGAACTTTGACTGC
B25: NRC3_wobSeed30_DR1_T5C_o1 (dsDNA)
DNA 1: GCACCAGCAGGCCAAGGGTCACTCAAGATTAGTCCGGCGATTGACAGCGTAGAATGAAGG
DNA 2: CCTTCATTCTACGCTGTCAATCGCCGGACTAATCTTGAGTGACCCTTGGCCTGCTGGTGC
B26: NRC3_wobSeed120_DR4_G5C_o1 (dsDNA)
DNA 1: GCCCCAGTAGGTTACGAGGGGGCATTCAGTGCGAATGCGATTGACAGCGTAGAATGAAGG
DNA 2: CCTTCATTCTACGCTGTCAATCGCATTCGCACTGAATGCCCCCTCGTAACCTACTGGGGC
B27: NRC3_wobSeed44_DR1_A6C_o1 (dsDNA)
DNA 1: GCTGACTGAGGTTAAAGATCAGGGAACGTGGCGTCGGCGATTGACAGCGTAGAATGAAGG
DNA 2: CCTTCATTCTACGCTGTCAATCGCCGACGCCACGTTCCCTGATCTTTAACCTCAGTCAGC
B28: NRC3_wobSeed121_DR5_A26T_o1 (dsDNA)
DNA 1: GCCAAACTAGGTCACCGGAAGGTCATAGTCCGCATGGCGATTGACAGCGTAGAATGAAGG
DNA 2: CCTTCATTCTACGCTGTCAATCGCCATGCGGACTATGACCTTCCGGTGACCTAGTTTGGC
B29: NRC3_wobSeed53_DR2_G9A_o1 (dsDNA)
DNA 1: GCCCTTACAGGTCACGAGGTTATAGCACGACGAGCGGCGATTGACAGCGTAGAATGAAGG
DNA 2: CCTTCATTCTACGCTGTCAATCGCCGCTCGTCGTGCTATAACCTCGTGACCTGTAAGGGC
B30: NRC3_wobSeed29_DR1_G24A_o1 (dsDNA)
DNA 1: GCGCTTACGGGTCAAAGGTTATAACATGAATAGAATGCGATTGACAGCGTAGAATGAAGG
DNA 2: CCTTCATTCTACGCTGTCAATCGCATTCTATTCATGTTATAACCTTTGACCCGTAAGCGC
B31: NRC3_wobSeed29_DR1_C4A_o1 (dsDNA)
DNA 1: B30 DNA 1 with C4A, A24G
DNA 2: B30 DNA 2 with T37C, G57T
B32: NRC3_wobSeed31_DR1_A15T_o1 (dsDNA)
DNA 1: GCTCATATAGGTAATAGGTGAAAGTCGGTGTGGTAAGCGATTGACAGCGTAGAATGAAGG
DNA 2: CCTTCATTCTACGCTGTCAATCGCTTACCACACCGACTTTCACCTATTACCTATATGAGC
B33: NRC3_wobSeed136_DR5_A30G_o1 (dsDNA)
DNA 1: GCTAGCCTAGGTCATTCAGGGGCCAGTATGGAAAGCGCGATTGACAGCGTAGAATGAAGG
DNA 2: CCTTCATTCTACGCTGTCAATCGCGCTTTCCATACTGGCCCCTGAATGACCTAGGCTAGC
B34: NRC3_wobSeed136_DR5_C24T_o1 (dsDNA)
DNA 1: B33 DNA 1 with C24T, G30A
DNA 2: B33 DNA 2 with C31T, G37A

Each binder was assayed against PPARa:RXRa (Homo sapiens, UniProt Q07869;P19793 full;full) (assay: no ligand; PBM; 270 nM : 90 nM RXRa; PBS pH 7.4, 2% milk, 0.02% Triton X-100, 1 mM DTT, BSA, 0.4 mg/ml salmon testes DNA). Settings: tags: GST kept;His cleaved; copies: 1;1; label: surface-attached array probe.
Summary of the method: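 Binding z-scores were set against random background probes. The data came from custom Agilent 4×180K protein-binding microarrays carrying double-stranded probes with 34-nt variable regions, incubated 1 h with ligand-free nuclear receptor dimers. Partner-specific antibodies detected binding, and scanned fluorescence was regression-normalized.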

Sequence of PPARa:RXRa (Q07869 whole entry, chain 1 of 2): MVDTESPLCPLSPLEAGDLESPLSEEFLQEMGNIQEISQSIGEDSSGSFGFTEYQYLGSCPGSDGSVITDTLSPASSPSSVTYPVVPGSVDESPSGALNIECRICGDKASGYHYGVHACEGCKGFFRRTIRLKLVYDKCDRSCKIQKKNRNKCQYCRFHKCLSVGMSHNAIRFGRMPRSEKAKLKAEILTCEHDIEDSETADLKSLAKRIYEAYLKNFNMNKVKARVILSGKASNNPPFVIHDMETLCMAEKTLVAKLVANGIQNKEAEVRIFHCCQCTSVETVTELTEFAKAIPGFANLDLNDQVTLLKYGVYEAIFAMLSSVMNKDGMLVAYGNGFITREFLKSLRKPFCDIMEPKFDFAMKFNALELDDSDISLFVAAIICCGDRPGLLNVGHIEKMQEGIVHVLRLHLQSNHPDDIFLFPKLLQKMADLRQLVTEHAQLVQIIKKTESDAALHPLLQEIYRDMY
Sequence of PPARa:RXRa (P19793 whole entry, chain 2 of 2): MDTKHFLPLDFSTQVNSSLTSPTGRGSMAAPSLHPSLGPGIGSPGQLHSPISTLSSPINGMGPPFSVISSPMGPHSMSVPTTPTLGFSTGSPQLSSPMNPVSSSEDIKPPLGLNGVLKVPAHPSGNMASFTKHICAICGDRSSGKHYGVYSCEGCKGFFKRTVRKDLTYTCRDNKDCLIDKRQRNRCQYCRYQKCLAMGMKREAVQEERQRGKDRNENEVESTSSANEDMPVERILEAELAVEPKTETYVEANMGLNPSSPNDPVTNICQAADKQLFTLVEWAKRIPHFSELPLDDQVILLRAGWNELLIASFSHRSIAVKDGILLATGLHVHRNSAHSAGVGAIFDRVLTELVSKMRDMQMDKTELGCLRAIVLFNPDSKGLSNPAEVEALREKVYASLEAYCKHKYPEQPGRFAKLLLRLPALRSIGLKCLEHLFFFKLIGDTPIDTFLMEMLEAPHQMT

Binder | binding signal
B1 | 3.59 PBM z-score against 500 random probes
B2 | 3.89 PBM z-score against 500 random probes
B3 | 3.8 PBM z-score against 500 random probes
B4 | 3.72 PBM z-score against 500 random probes
B5 | 3.86 PBM z-score against 500 random probes
B6 | 3.7 PBM z-score against 500 random probes
B7 | 3.78 PBM z-score against 500 random probes
B8 | 7.06 PBM z-score against 500 random probes
B9 | 6.97 PBM z-score against 500 random probes
B10 | 3.84 PBM z-score against 500 random probes
B11 | 6.99 PBM z-score against 500 random probes
B12 | 6.86 PBM z-score against 500 random probes
B13 | 6.51 PBM z-score against 500 random probes
B14 | 3.63 PBM z-score against 500 random probes
B15 | 3.61 PBM z-score against 500 random probes
B16 | 3.73 PBM z-score against 500 random probes
B17 | 3.57 PBM z-score against 500 random probes

Binder | binding signal
B18 | 3.64 PBM z-score against 500 random probes
B19 | 8.27 PBM z-score against 500 random probes
B20 | 8.04 PBM z-score against 500 random probes
B21 | 8.22 PBM z-score against 500 random probes
B22 | 6.63 PBM z-score against 500 random probes
B23 | 6.91 PBM z-score against 500 random probes
B24 | 3.56 PBM z-score against 500 random probes
B25 | 3.87 PBM z-score against 500 random probes
B26 | 3.76 PBM z-score against 500 random probes
B27 | 3.82 PBM z-score against 500 random probes
B28 | 6.6 PBM z-score against 500 random probes
B29 | 6.65 PBM z-score against 500 random probes
B30 | 7.28 PBM z-score against 500 random probes
B31 | 7.27 PBM z-score against 500 random probes
B32 | 3.69 PBM z-score against 500 random probes
B33 | 3.67 PBM z-score against 500 random probes
B34 | 3.65 PBM z-score against 500 random probes
